Assay [1] deals with human IgE (SUS-11 IgE) (human) (UniProt P01854). The assay is described as follows: SPR (BIAcore), IgE amine-coupled to CM5 chip, monophasic model. On the technique in general: Surface plasmon resonance follows binding to a sensor surface in real time, without labels.
Assay [2] has the same target. Kind of assay: competition ELISA: SUS-11 IgE (1 µg/ml) pre-incubated with the antibody, captured on anti-IgE Le27; blocked ligand is HRP-labeled FcεRIα-HSA-FcεRIα (DFP); binding without competitor = 100 %. On the technique in general: In an ELISA, binding on a coated surface is turned into a signal by an enzyme label.

UniProt P01854, sequence (P01854 other isoform, or with tags, fused parts or gaps): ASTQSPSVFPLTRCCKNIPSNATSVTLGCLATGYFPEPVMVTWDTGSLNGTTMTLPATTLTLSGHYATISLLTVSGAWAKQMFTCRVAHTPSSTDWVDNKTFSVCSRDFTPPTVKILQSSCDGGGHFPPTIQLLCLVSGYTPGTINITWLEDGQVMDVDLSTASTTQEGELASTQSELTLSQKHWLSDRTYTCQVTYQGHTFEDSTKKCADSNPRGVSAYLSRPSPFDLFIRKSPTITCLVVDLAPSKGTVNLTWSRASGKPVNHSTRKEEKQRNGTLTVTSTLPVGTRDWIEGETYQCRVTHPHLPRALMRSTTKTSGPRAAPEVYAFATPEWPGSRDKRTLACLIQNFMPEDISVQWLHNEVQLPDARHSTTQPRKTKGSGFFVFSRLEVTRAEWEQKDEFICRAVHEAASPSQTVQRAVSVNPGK

As a reminder, the Kd is the equilibrium constant for the complex coming apart. A lower Kd goes with a tighter complex. By koff is commonly meant the rate constant with which the complex falls apart. As usually defined, the kon is a measure of how fast the partners come together. For “BSW17, mouse monoclonal anti-human IgE antibody (hybridoma ECACC 96121916)”, in assay [1], the Kd stood at 0.53 nM, the koff was found to be 4.2e-06 s⁻¹ and the kon worked out at 8000 M⁻¹ s⁻¹. The same substance came in with an IC50 (read off the curve) in assay [2] of 0.4 µg/mL.
